One assay deals with T1, Recombinant human IL-1β (human, UniProt P01584 117-269).
T1 construct: also called huIL-1β
The assay can be described thus: SET simultaneous target binding, Assay B (both targets in serial dilutions in one mix), ECL read-out.

Assay [1] concerns the target T2, Recombinant marmoset IL-1β (marmoset, UniProt U3E018 117-268).
T2 construct: also called marIL-1β
The assay is described as above.

Assay [2] has as its target T2, Recombinant marmoset IL-1β. As to the kind of experiment: cell-based or functional assay.
Another assay deals with T3, Recombinant human IL-18 (human, UniProt Q14116 37-193).
T3 construct: A biotinylated form (BTP25828) was coated on the read-out plate in the SET assay; The titrated antigen in solution is huIL-18; also called huIL-18
As to the kind of experiment: SET simultaneous target binding, Assay B (both targets in serial dilutions in one mix), ECL read-out.

Assay [3] concerns the target T4, Recombinant marmoset IL-18 (marmoset, UniProt U3CWC9 37-190).
T4 construct: also called marIL-18
T4 sequence: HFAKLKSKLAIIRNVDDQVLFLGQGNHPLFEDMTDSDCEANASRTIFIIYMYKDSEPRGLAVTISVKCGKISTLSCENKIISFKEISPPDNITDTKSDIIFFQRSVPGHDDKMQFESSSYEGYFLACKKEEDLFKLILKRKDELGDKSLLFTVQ
Described as above.

B1: mAb1 (antibody, human IgG1, lambda, L234A L235A, V domains shown)
VH: EVQLVQSGAEVKKPGSSVKVSCKASGGTFKSYAISWVRQAPGQGLEWMGNIIPMTGQTYYAQKFQGRVTITADESTSTAYMELSSLRSEDTAVYYCARAAYHPLVFDNWGQGTLVTVSS
VL: DIVLTQPPSVSGAPGQRVTISCSGSSSNIGNHYVNWYQQLPGTAPKLLIYRNNHRPSGVPDRFSGSKSGTSASLAITGLQSEDEADYYCQSWDYSGFSTVFGGGTKLTVLG
notes: Human monospecific bivalent IgG1 with lambda light chain (Vlambda1); also called IL-18 antibody; anti-IL18 IgG1
Take B1: the binding result (in the assay with Recombinant human IL-1β; in assay [1]) was “no binding” each time.

B2: mAb2 (antibody, human IgG1, kappa, V domains shown)
VH: QVQLVESGGGVVQPGRSLRLSCAASGFTFSVYGMNWVRQAPGKGLEWVAIIWYDGDNQYYADSVKGRFTISRDNSKNTLYLQMNGLRAEDTAVYYCARDLRTGPFDYWGQGTLVTVSS
VL: EIVLTQSPDFQSVTPKEKVTITCRASQSIGSSLHWYQQKPDQSPKLLIKYASQSFSGVPSRFSGSGSGTDFTLTINSLEAEDAAAYYCHQSSSLPFTFGPGTKVDIKR
notes: Human monospecific bivalent IgG1 with kappa light chain (Vkappa6); also called IL-1β antibody; anti IL-1β IgG1
For the molecule B2, in assay [2], the “IL-6 prod. in dermal fibroblasts stimulated with recombinant marmoset IL-1β (18 pM), IC50, Exp. A (marmoset dermal fibroblasts by the column head)” value stood at 95 pM; the “IL-6 prod. in dermal fibroblasts stimulated with recombinant marmoset IL-1β (18 pM), IC50, Exp. B (marmoset or human fibroblasts: column heads unclear)” value came to 0.138 nM; the “IL-6 prod. in dermal fibroblasts stimulated with recombinant marmoset IL-1β (18 pM), IC50, Exp. C (marmoset or human fibroblasts: column heads unclear)” value was found to be 0.114 nM. Moreover, the binding result with Recombinant human IL-18 is reported as “no binding”. In assay [3], the binding result is on record as “no binding”.

For the origin of these results see patent US20200308309A1 (Novartis, published 2020).
